Assay results taken from article PMC7117543 (Biochemical and Biophysical Research Communications, 2008).

Biological target: T1, staphylococcal enterotoxin B (SEB) (Staphylococcus aureus, UniProt P01552 28-266)
T1 sequence: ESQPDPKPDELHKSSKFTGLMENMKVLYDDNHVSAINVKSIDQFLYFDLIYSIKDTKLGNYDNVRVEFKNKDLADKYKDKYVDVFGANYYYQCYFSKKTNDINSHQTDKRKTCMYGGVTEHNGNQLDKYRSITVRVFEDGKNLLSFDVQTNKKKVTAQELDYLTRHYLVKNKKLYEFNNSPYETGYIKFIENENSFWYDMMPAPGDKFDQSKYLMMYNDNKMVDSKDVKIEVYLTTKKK
Test: SPR

QHPQINQTLYRM [phage clone 9 (M13 phage displaying QHPQINQTLYRM)]: binds.
